This passage reports Kd results from article PMC4994250.

The target of the assay is human CASKIN2 SAM1-SAM2 tandem (483-634), G537D/K540E double mutant (human) (UniProt Q8WXE0). Briefly: AUC; sedimentation velocity, 300 mM NaCl, 20 mM sodium phosphate pH 7.8, 20 °C, 50,000 rpm; 10 and 34 μM loading, Kd fitted from the 34 μM experiment; monomer-dimer equilibrium (dimer to monomers).

What is called Kd is the concentration at which binding is half-saturated. Read a high Kd as a looser complex.

“human CASKIN2 SAM1-SAM2 tandem (483-634), G537D/K540E double mutant (from UniProt Q8WXE0 483-634) (domain or fragment)”: the dissociation constant (Kd) was 99.8 µM.
